Laboratory results taken from patent EP2319931A1 (Inhibitex, Inc., dated 2011).

B1: biotinylated ClfA region A protein (other)
chain: SENSVTQSDSASNESKSNDSSSVSAAPKTDDTNVSDTKTSSNTNNGETSVAQNPAQQETTQSSSTNATTEETPVTGEATTTTTNQANTPATTQSSNTNAEELVNQTSNETTFNDTNTVSSVNSPQNSTNAENVSTTQDTSTEATPSNNESAPQSTDASNKDVVNQAVNTSAPRMRAFSLAAVAADAPAAGTDITNQLTNVTVGIDSGTTVYPHQAGYVKLNYGFSVPNSAVKGDTFKITVPKELNLNGVTSTAKVPPIMAGDQVLANGVIDSDGNVIYTFTDYVNTKDDVKATLTMPAYIDPENVKKTGNVTLATGIGSTTANKTVLVDYEKYGKFYNLSIKGTIDQIDKTNNTYRQTIYVNPSGDNVIAPVLTGNLKPNTDSNALIDQQNTSIKVYKVDNAADLSESYFVNPENFEDVTNSVNITFPNPNQYKVEFNTPDDQITTPYIVVVNGHIDPNSKGDLALRSTLYGYNSNIIWRSMSWDNEVAFNNGSGSGDGIDKPVVPEQPDEPGEIEPIPE
modifications: biotinylated (sites not given)
notes: domain: region A; also called biotinylated recombinant region A from ClfA; C1fA region A
B3: biotinylated ClfB (His-tag recombinant region A) (other)
chain: SEQSNDTTQSSKNNASADSEKNNMIETPQLNTTANDTSDISANTNSANVDSTTKPMSTQTSNTTTTEPASTNETPQPTAIKNQATAAKMQDQTVPQEGNSQVDNKTTNDANSIATNSELKNSQTLDLPQSSPQTISNAQGTSKPSVRTRAVRSLAVAEPVVNAADAKGTNVNDKVTASNFKLEKTTFDPNQSGNTFMAANFTVTDKVKSGDYFTAKLPDSLTGNGDVDYSNSNNTMPIADIKSTNGDVVAKATYDILTKTYTFVFTDYVNNKENINGQFSLPLFTDRAKAPKSGTYDANINIADEMFNNKITYNYSSPIAGIDKPNGANISSQIIGVDTASGQNTYKQTVFVNPKQRVLGNTWVYIKGYQDKIEESSGKVSATDTKLRIFEVNDTSKLSDSYYADPNDSNLKEVTDQFKNRIYYEHPNVASIKFGDITKTYVVLVEGHYDNTGKNLKTQVIQENVDPVTNRDYSIFGWNNENVVRYGGGSADGDSAVN
modifications: Biotinylated with EZ link-sulfo-NHS-LC-Biotin (sites not given); N-terminal His-tag from pV4 left off.
notes: Region A (S45 to N542) amplified from S. aureus Newman genomic DNA, cloned in His-tag vector pV4, purified on nickel; also called ClfB region A; biotinylated purified ClfB region A

What was measured:
bovine serum albumin = target: T1, bovine serum albumin (bovine, UniProt P02769 25-607); assay: direct ELISA, biotinylated region A on BSA-coated plates
T1 construct: Negative control coat in ELISA; also called BSA

human fibrinogen = target: T2, human fibrinogen (human, UniProt P02671 20-629; P02675 31-491; P02679 27-437); assay: direct ELISA, biotinylated region A on fibrinogen-coated plates (Figure 14)
T2 construct: Purified human fibrinogen, bought (Chromogenix for ELISA, Calbiochem for clumping); The plate adherence assays say only 'fibrinogen'; also called solid phase fibrinogen; immobilized fibrinogen
T2 sequence 1: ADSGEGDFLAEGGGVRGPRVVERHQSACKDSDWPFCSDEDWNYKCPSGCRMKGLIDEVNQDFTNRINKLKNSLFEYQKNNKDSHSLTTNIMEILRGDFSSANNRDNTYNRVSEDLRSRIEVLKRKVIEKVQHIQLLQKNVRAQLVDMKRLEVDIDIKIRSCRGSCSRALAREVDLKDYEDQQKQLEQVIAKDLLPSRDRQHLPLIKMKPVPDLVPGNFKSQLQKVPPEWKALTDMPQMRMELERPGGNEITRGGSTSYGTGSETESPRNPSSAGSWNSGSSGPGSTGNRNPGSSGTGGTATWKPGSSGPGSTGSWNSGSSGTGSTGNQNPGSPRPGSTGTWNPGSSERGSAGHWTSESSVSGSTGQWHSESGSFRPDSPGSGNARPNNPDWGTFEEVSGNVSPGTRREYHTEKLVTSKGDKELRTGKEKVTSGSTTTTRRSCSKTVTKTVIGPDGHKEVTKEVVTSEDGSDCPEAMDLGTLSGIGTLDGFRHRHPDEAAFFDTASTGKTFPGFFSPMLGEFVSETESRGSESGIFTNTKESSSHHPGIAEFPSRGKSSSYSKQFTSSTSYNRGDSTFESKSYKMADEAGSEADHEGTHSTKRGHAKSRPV
T2 sequence 2: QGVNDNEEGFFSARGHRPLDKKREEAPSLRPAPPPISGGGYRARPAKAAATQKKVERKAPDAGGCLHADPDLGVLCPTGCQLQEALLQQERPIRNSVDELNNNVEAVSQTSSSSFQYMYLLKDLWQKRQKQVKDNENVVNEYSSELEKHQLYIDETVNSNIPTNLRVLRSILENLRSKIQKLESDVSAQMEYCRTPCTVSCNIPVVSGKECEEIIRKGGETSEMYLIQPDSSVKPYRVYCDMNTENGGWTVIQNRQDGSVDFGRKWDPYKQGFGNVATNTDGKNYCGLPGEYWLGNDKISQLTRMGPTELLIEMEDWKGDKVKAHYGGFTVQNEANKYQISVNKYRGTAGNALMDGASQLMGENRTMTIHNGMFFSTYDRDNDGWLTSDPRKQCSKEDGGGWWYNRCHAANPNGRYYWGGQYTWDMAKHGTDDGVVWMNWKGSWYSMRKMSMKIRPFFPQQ
T2 sequence 3: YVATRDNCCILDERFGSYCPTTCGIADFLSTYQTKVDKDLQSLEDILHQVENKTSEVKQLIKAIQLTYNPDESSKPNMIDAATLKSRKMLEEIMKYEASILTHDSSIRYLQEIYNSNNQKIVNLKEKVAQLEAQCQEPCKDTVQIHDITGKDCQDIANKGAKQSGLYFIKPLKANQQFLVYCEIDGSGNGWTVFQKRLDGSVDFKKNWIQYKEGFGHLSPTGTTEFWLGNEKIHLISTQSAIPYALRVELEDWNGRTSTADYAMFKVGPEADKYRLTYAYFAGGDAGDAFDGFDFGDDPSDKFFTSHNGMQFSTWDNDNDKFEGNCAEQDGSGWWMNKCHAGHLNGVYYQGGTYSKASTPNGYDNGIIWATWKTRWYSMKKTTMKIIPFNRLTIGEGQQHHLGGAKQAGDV

[1] = target: B3; assay: Western affinity blot, blotted human fibrinogen probed with 2.5 µg/ml biotinylated ClfB region A
[2] = target: T3, alpha chain of human fibrinogen (human, UniProt P02671 20-629); assay: as above
T3 construct: Band of human fibrinogen (Chromogenix) after SDS-PAGE, on nitrocellulose; also called α chain of fibrinogen
T3 sequence: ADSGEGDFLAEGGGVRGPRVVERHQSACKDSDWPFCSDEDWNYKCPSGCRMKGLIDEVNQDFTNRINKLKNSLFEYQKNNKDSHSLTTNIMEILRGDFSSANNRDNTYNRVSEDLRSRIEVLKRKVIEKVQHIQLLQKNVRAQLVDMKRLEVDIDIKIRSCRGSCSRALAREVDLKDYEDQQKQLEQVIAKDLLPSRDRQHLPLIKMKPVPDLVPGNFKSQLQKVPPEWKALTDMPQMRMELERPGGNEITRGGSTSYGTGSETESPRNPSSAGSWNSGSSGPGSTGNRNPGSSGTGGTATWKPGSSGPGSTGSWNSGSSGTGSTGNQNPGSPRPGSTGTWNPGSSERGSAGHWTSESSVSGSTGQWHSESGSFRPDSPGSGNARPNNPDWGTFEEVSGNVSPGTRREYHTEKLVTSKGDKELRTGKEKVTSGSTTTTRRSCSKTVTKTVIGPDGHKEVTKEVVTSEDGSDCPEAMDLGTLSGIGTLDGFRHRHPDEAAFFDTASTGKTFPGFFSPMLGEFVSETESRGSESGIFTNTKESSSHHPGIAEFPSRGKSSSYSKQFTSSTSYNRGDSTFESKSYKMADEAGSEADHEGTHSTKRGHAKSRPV

[3] = target: B1; assay: Western affinity blot (Figure 22), blotted human fibrinogen probed with 2.5 µg/ml biotinylated region A

T1 sequence (P02769 25-607 limits assumed): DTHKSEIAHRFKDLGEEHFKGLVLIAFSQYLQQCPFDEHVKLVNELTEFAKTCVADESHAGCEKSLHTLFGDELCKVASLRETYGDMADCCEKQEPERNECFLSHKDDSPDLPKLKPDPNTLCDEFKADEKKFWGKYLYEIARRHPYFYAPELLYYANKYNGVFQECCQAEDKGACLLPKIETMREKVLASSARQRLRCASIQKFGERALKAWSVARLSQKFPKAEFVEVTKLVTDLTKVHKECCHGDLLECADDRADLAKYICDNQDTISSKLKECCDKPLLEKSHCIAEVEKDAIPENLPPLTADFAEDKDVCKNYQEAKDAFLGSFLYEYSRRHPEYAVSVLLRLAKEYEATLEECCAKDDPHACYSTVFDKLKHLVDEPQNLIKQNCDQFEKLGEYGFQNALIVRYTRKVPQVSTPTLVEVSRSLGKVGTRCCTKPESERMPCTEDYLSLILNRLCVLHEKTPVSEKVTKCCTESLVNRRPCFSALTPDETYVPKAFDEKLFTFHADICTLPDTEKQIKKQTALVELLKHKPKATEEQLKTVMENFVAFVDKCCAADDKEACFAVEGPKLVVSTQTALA

For B1, the binding result (bovine serum albumin) was “no binding” and the “binding at the highest concentration relative to ClfB region A” value (human fibrinogen) was ~50 % greater than ClfB.

B2: beta chain of human fibrinogen (other)
chain: QGVNDNEEGFFSARGHRPLDKKREEAPSLRPAPPPISGGGYRARPAKAAATQKKVERKAPDAGGCLHADPDLGVLCPTGCQLQEALLQQERPIRNSVDELNNNVEAVSQTSSSSFQYMYLLKDLWQKRQKQVKDNENVVNEYSSELEKHQLYIDETVNSNIPTNLRVLRSILENLRSKIQKLESDVSAQMEYCRTPCTVSCNIPVVSGKECEEIIRKGGETSEMYLIQPDSSVKPYRVYCDMNTENGGWTVIQNRQDGSVDFGRKWDPYKQGFGNVATNTDGKNYCGLPGEYWLGNDKISQLTRMGPTELLIEMEDWKGDKVKAHYGGFTVQNEANKYQISVNKYRGTAGNALMDGASQLMGENRTMTIHNGMFFSTYDRDNDGWLTSDPRKQCSKEDGGGWWYNRCHAANPNGRYYWGGQYTWDMAKHGTDDGVVWMNWKGSWYSMRKMSMKIRPFFPQQ
notes: Band of human fibrinogen (Chromogenix) after SDS-PAGE, on nitrocellulose; also called β chain of fibrinogen
B2: binds [1].

B3: no binding (tested: 0.1-10 µg/ml) (bovine serum albumin); binds (human fibrinogen); binds [2].

B4: gamma chain of human fibrinogen (other)
chain: YVATRDNCCILDERFGSYCPTTCGIADFLSTYQTKVDKDLQSLEDILHQVENKTSEVKQLIKAIQLTYNPDESSKPNMIDAATLKSRKMLEEIMKYEASILTHDSSIRYLQEIYNSNNQKIVNLKEKVAQLEAQCQEPCKDTVQIHDITGKDCQDIANKGAKQSGLYFIKPLKANQQFLVYCEIDGSGNGWTVFQKRLDGSVDFKKNWIQYKEGFGHLSPTGTTEFWLGNEKIHLISTQSAIPYALRVELEDWNGRTSTADYAMFKVGPEADKYRLTYAYFAGGDAGDAFDGFDFGDDPSDKFFTSHNGMQFSTWDNDNDKFEGNCAEQDGSGWWMNKCHAGHLNGVYYQGGTYSKASTPNGYDNGIIWATWKTRWYSMKKTTMKIIPFNRLTIGEGQQHHLGGAKQAGDV
notes: Band of human fibrinogen (Chromogenix) after SDS-PAGE, on nitrocellulose; also called γ chain of fibrinogen
B4: binds [3].
